# Assay results: patent US20060246519A1, “MONOMERIC STREPTAVIDIN MUTEINS” (priority 2005, published 2006)
# What was measured:
# [1] = Degree of monomerization of non-boiled samples in SDS-PAGE / Western blot; format: physicochemical
# Procedure: FIG. 3: Western blot analysis of cell culture supernatants from B. subtilis strains producing streptavidin muteins carrying a single mutation. 15 μl of non-boiled sample of culture supernatant was loaded to each lane. Samples on the left set were collected from B. subtilis strains cultured in super-rich medium without additional supplement of biotin. Samples on the right set were collected from B. subtilis strains cultured in super-rich medium with additional supplementation of biotin (20 μM). The blot was probed with polyclonal antibodies against streptavidin and developed using 4-chloro-1-napthol (Bio-Rad) as the colour development agent. […] M, molecular weight markers; wt, wild type streptavidin.
# FIG. 4: Analysis of culture supernatants from B. subtilis strains producing streptavidin muteins carrying different combinations of mutations. All these strains were cultivated in super-rich medium supplemented with biotin (20 μM). The 15 μl of non-boiled samples of culture supernatants were loaded. FIG. 4A. Coomassie blue stained SDS-polyacrylamide gel. Bands corresponding to tetrameric and monomeric streptavidin are marked by an asterisk and an arrowhead, respectively. FIG. 4B. Western blot probed with polyclonal antibodies against streptavidin. M, molecular weight markers; wt, wild type streptavidin; AK, mutein (D61A, W 120K); M1, mutein (T76R); M2, mutein (T76R, V125R); M4, mutein (T76R, V125R, V55T, L109T); C, negative control.
# Streptavidin muteins carrying a single amino-acid change at the selected site may be produced in their soluble form by B. subtilis via secretion. Analysis of non-boiled culture supernatants by SDS-PAGE offers a quick screen for the mutation effect (Qureshi, 2001). Weaker subunit interaction would result in a higher percentage of the sample in the monomeric state on the SDS-polyacrylamide gel. Since biotin can strengthen subunit interaction, samples were analyzed in the presence or absence of biotin (Laitinen, 2001; Gonzalez, 1999).
# In single mutation muteins, the impact of the mutation on weakening of the subunit interaction followed the order T76R>V125R>[…]≈V55R>V55T (FIG. 3 and Table 4). The T76R mutein (referred to herein as M1) existed 100% in the monomeric state on the SDS-polyacrylamide gel even in the presence of biotin. In contrast, V55T mutation had the lowest impact, with the majority of molecules in the tetrameric state even in the absence of added biotin. Presence of biotin shifts the majority of the three remaining muteins (V125R, V125T and V55R) to the tetrameric state. Changing valine to arginine exerted greater impact than changing it to threonine. This is true for both Val-125 and Val-55.
# [2] = Apparent molecular mass by gel filtration (Bio-Prep SE 100/17); format: physicochemical
# Description: FIG. 6: Gel filtration profiles of streptavidin muteins. FIG. 6A. […] Bovine gamma-globulin (158 kDa), bovine serum albumin (66 kDa), ovalbumin (44 kDa), myoglobin (17 kDa) and vitamin B-12 (1.35 kDa) were used as molecular mass markers (closed circles) to calibrate the column. The logarithm of molecular mass was plotted versus Kav (Kav=(Ve−Vo)/(Vt−Vo); Ve, elution volume; Vo, void volume; Vt, bed volume). Positions of wild-type streptavidin (wt) and streptavidin muteins are represented by solid squares. FIG. 6B. Elution profile of M4 mutein (loaded at 2 mg/ml) on the gel filtration column.
# (§1) Molecular mass of purified streptavidin and its muteins was estimated by both gel filtration and dynamic light scattering studies. Gel filtration was performed on the Bio-Rad biologic workstation equipped with a Bio-Prep SE 100/17 column that had been calibrated with molecular mass protein markers (Bio-Rad). Molecular mass was also estimated from the hydrodynamic radius of the mutein obtained using a DynaPro MS dynamic light scattering instrument (Protein Solutions, USA) that had been calibrated with lysozyme. Protein samples (2-3 mg/ml in PBS) were passed through a 0.02 μm filter (Whatman Anodisc 13) immediately prior to measurement. The size distribution profile was analyzed using the manufacturer's Dynamics V6 software.
# [3] = test system: Biotin-conjugated bovine serum albumin; assay: Kinetic analysis by surface plasmon resonance BIAcoreX biosensor; format: binding; conditions: interaction with biotin
# Procedure: FIG. 8: Kinetic parameters for the interaction between M4 streptavidin mutein and biotin as monitored by BIAcore biosensor. A. On-rate (ka) determination. ka is derived from association analysis. kd is the slope of the plot of In(Ro/Rt) versus (t−to) where Ro is the response at an arbitrary starting time to; Rt is the response at time t.
# The kinetic parameters (both on- and off-rates for interaction with biotin) of streptavidin muteins were determined in real time using the surface plasmon resonance based BIAcoreX biosensor. Biotin-conjugated bovine serum albumin immobilized on CM5 sensor chip was used to study the reversibility of biotin binding (Qureshi, 2001).
# [4] = Dynamic light scattering (hydrodynamic radius, estimated molecular mass); format: physicochemical; conditions: for M (kDa) (Dynamic light scattering): calculated from measured RH using a protein calibration curve
# Procedure: as §1
# [5] = Cross-linking reactions with sulfo-EGS; format: physicochemical; conditions: 10-fold molar excess sulfo-EGS, 30 min, room temperature
# Procedure: Cross-linking of streptavidin and its muteins was carried out using sulfo-EGS [ethylene glycolbis(sulfosuccinimidyl succinate)] (Pierce) as the cross-linker. A typical reaction mixture (20 μl) contained the purified mutein (0.2 5 mg/ml) and sulfo-EGS (10-fold molar excess over the protein) in PBS. After 30 min at room temperature, the reaction was quenched with Tris-HCl (30 mM, pH 7.5). Aliquots of the cross-linking reaction samples were boiled and examined by SDS-PAGE. Lysozyme (Sigma, 0.25 mg/ml) was included in the study to help establish the optimal reaction conditions.
# proteinase K = assay: Proteinase K digestion of streptavidin and its muteins; format: biochemical
# Procedure: Purified streptavidin and its muteins (30 μM monomer) were treated with proteinase K (Invitrogen, 5 μM) for 15 min at 30° C. in 50 mM Tris-HCl containing 5 mM CaCl2, pH 8.0. The reaction was stopped by precipitation with trichloroacetic acid (Ellison, 1995). Boiled samples of precipitated proteins were resolved by reducing SDS-PAGE. The same analysis was performed with streptavidin samples treated with biotin (1 mM final concentration) prior to proteinase K digestion.
# [6] = independent of the presence or absence of biotin, 5 μM proteinase K, 15 min, 30° C.
Substance,Monomer (percentage of streptavidin in monomeric state) ([1]; No additional biotin) [%],Monomer (percentage of streptavidin in monomeric state) ([1]; With additional biotin (20 μM)) [%],M (kDa) (Gel filtration) ([2]; no biotin),RH (nm) (Dynamic light scattering) ([4]; no biotin),M (kDa) (Dynamic light scattering) ([4]; no biotin),Oligomeric state after cross-linking with sulfo-EGS (SDS-PAGE) [5],further results
V125T: streptavidin mutein carrying the single mutation V125T,25,0,,,,,
M2: streptavidin double mutant carrying T76R and V125R mutations,100,100,19.95,1.98 ± 0.24,17,migrated as monomers,"M (kDa) (Gel filtration) ([2]; +biotin): 23.44 kDa; ka, on-rate [3]: 1.88 ± 0.07 × 10^4 M^−1s^−1; kd, off-rate [3]: 3.22 ± 0.01 × 10^−3 s^−1; RH (nm) (Dynamic light scattering) ([4]; +biotin): 2.09 ± 0.29 nm; M (kDa) (Dynamic light scattering) ([4]; +biotin): 18 kDa; Susceptibility to proteinase K digestion (proteinase K; [6]): completely digested"
Wt: wild-type streptavidin produced by B. subtilis WB800 [reference compound],,,56.23,3.69 ± 0.19,69,most of these subunits were cross-linked to dimers and higher oligomers,"M (kDa) (Gel filtration) ([2]; no biotin, listed as wild-type streptavidin): 56 kDa; Susceptibility to proteinase K digestion (proteinase K; [6]): converted to the core form"
M1: streptavidin mutein carrying the single mutation T76R,100,100,,,,,
V125R: streptavidin mutein carrying the single mutation V125R,92,12,,,,,
"AK: prior art streptavidin mutein carrying double mutations D61A, W120K [reference compound]",100,100,45.66,3.20 ± 0.23,50,cross-linking profile very similar to that of the wild type streptavidin,"M (kDa) (Gel filtration) ([2]; +biotin): 50.12 kDa; ka, on-rate [3]: 1.46 ± 0.05 × 10^4 M^−1s^−1; kd, off-rate [3]: 3.59 ± 0.03 × 10^−3 s^−1; RH (nm) (Dynamic light scattering) ([4]; +biotin): 3.54 ± 0.38 nm; M (kDa) (Dynamic light scattering) ([4]; +biotin): 63 kDa; Susceptibility to proteinase K digestion (proteinase K; absence of biotin): most of it was digested; Susceptibility to proteinase K digestion (proteinase K; biotin present (1 mM)): much more resistant"
V55R: streptavidin mutein carrying the single mutation V55R,20,10,,,,,
V55T: streptavidin mutein carrying the single mutation V55T,1,0,,,,,
